Experiment [1] deals with T1, ELC.
T1 construct: also called ELC/MIP-3β/CCL19; CCL19
T1 chemokine: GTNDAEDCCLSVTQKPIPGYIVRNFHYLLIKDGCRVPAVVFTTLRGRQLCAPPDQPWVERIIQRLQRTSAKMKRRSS
The experiment can be described thus: MSD electrochemiluminescence assay; chemokine coated at 1 µg/mL, 18V4F at 3 µg/mL; background = BSA.

For the next experiment, the target named is T2, Eotaxin.
T2 construct: also called Eotaxin/CCL11; CCL11
The experiment is described as above.

In experiment [2] the target is T3, human HCC-2/MIP-1δ/CCL15 (human, UniProt Q16663 46-113).
T3 sequence: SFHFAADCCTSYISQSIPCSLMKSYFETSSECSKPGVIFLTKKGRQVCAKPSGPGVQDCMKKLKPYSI
The description is as above.

The target in experiment [3] is T1, ELC. The experiment is described as follows: MSD electrochemiluminescence assay; chemokine coated at 1 µg/mL, 7D12A at 3 µg/mL; background = BSA.
For another experiment, the target named is T4, human PARC/CCL18 (human, UniProt P55774 21-89).
T4 sequence: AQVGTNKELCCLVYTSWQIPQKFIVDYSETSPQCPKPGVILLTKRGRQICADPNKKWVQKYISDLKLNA
The experiment is described as above.

For the next experiment, the target named is T5, MCP-2.
T5 construct: also called MCP-2/CCL8; CCL8
T5 chemokine: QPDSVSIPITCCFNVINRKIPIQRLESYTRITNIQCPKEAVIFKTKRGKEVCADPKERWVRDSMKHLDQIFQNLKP
The description is as above.

The target of another experiment is T6, human MCP-1/CCL2 (human, UniProt P13500 24-99).
T6 construct: also called Biotin-MCP1
T6 sequence (P13500 24-99 limits assumed): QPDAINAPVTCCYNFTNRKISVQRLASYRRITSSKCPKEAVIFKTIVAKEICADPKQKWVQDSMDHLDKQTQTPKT
The description is as above.

The next experiment deals with T7, human MPIF-1/CCL23 (human, UniProt P55773 46-120).
T7 sequence: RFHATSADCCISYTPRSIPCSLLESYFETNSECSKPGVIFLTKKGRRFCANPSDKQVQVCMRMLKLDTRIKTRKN
The experiment is described as above.

Another experiment addresses T8, SDF.
T8 construct: also called SDF-1/CXCL12; CXCL12
The description is as above.

In a further experiment the target is T9, IL-8.
T9 construct: also called IL-8/CXCL8; CXCL8
T9 sequence (chemokine, as listed by the source): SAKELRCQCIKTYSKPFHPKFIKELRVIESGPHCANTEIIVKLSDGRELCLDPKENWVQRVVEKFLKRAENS
Described as above.

The target of a further experiment is T10, MDC.
T10 construct: also called MDC/CCL22; CCL22
T10 chemokine: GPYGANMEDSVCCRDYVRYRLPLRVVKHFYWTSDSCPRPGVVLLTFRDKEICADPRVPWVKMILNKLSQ
Described as above.

The target in the next experiment is T11, Fractalkine.
T11 construct: also called Fractalkine/CX3CL1; CX3CL1
T11 chemokine: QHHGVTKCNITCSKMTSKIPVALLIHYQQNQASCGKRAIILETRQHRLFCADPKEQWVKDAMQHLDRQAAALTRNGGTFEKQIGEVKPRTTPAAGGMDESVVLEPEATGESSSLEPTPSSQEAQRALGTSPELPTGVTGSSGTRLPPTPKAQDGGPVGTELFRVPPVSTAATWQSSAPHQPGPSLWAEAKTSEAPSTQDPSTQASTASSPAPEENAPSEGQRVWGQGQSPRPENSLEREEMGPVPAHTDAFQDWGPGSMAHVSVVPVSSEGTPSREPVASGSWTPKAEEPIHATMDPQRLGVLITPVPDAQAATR
The experiment is described as above.

A further experiment concerns the target T12, MCP-3.
T12 construct: also called MCP-3/CCL7; CCL7
Described as above.

The next experiment has as its target T13, HCC-4.
T13 construct: also called HCC-4/CCL16; CCL16
T13 chemokine: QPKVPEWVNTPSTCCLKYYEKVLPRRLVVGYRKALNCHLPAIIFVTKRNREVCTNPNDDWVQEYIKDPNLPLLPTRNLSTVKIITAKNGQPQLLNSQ
Described as above.

In the next experiment the target is T14, I-309.
T14 construct: also called I-309/CCL1; CCL1
T14 chemokine: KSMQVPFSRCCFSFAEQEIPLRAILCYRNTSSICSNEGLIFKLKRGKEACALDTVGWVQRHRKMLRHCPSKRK
The experiment is described as above.

The target in another experiment is T15, MCP-4.
T15 construct: also called MCP-4/CCL13; CCL13
T15 sequence (chemokine, as listed by the source): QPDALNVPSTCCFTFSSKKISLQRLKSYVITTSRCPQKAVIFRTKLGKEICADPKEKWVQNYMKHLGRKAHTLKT
The description is as above.

Another experiment addresses T16, human HCC-1/CCL14/CCL14a (human, UniProt Q16627 28-93).
T16 sequence: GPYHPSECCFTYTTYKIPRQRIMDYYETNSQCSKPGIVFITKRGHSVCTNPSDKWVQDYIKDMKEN
The experiment is described as above.

Experiment [4] concerns the target T3, human HCC-2/MIP-1δ/CCL15. Described as above.

T12 sequence (chemokine, as listed by the source): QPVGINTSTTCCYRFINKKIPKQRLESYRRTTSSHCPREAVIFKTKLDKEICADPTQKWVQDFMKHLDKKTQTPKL
T2 sequence (chemokine, as listed by the source): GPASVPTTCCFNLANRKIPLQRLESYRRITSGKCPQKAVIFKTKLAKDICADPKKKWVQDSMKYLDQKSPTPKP
T8 sequence (chemokine, as listed by the source): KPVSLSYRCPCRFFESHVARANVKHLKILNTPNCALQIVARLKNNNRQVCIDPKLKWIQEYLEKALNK

B1: monoclonal antibody 18V4F (antibody, V domains shown)
VH: QVQLKESGPGLVAPSQSLSITCTVSGFSLTGYGIHWVRQPPGKGLEWLGVIWPGGGTNYNSALMSRLSISKDNSKSQVFLKMNSLQTDDTAMYYCARGPLITTEVSMDYWGQGTSVTVSS
VL: QAVVTQESALTTSPGETVTLTCRSNTGAVTTSNYANWVQEKPDHLFTGLIGGTNNRAPGVPARFSGSLIGDKAALTITGAQTEDEAIYFCALWYSNHWVFGGGTKLTVLG
notes: also called MAb 18V4F
In the case of B1, the binding result with ELC [1], in the experiment with Eotaxin and with human HCC-2/MIP-1δ/CCL15 [2] was “no binding (tested: 3 µg/mL)” each time.

B2: monoclonal antibody 7D12A (antibody, V domains shown)
VH: EVHLQESGPSLVKPSQTLSLTCSVTGDSITNGYWNWIRKFPGNKLDYMGYISYDGNTYYNPSLKSRFSITRDTSKNQYYLQLNSVTTEDTATYYCSRGDYGTYVMDYWGQGTSVTVSS
VL: NIVLTQSPVSLAVSLGQRATISCRASESVDSHGNSFMHWYQQKPGQPPKLLIYLASNLESGVPARFTGGGSGSDFTLTIDPVEADDVGTYYCQQNNEDPYTFGGGTKLEIK
notes: also called MAb 7D12A
In the case of B2, the binding result was “no binding (tested: 3 µg/mL)” with ELC [3]; “no binding (tested: 3 µg/mL)” with human PARC/CCL18; “no binding (tested: 3 µg/mL)” in the experiment with MCP-2; “no binding (tested: 3 µg/mL)” with human MCP-1/CCL2; “binds” with human MPIF-1/CCL23; “no binding (tested: 3 µg/mL)” with SDF. The binding result in the experiment with IL-8, in the experiment with MDC, with Fractalkine, in the experiment with MCP-3, with HCC-4 and with I-309 was “no binding (tested: 3 µg/mL)” in each case. Besides, the binding result with MCP-4, with human HCC-1/CCL14/CCL14a and in the experiment with human HCC-2/MIP-1δ/CCL15 [4] was “no binding (tested: 3 µg/mL)” each time.

The values above are taken from patent publication US20150166647A1 (VLST, published 2015).
